Target: T1, human OX40 on HEK293F cells (human, UniProt P43489 29-277)
T1 construct: whole, on cells
T1 sequence (looked up): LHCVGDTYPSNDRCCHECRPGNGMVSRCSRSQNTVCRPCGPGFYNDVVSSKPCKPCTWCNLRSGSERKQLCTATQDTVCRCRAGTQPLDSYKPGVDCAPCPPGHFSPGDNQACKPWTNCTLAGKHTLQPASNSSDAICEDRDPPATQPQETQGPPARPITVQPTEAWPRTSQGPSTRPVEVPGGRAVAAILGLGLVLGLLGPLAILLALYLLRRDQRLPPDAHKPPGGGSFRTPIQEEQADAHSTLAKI
Assay: flow cytometry, transfected HEK293F cells, 100 nM antibody [Cont.]
Protocol: Antibody selectivity was next examined. Human CTLA4, PD1, LAG3, Tim3, B7H3, CD95, TNFR1, OX40, CD40, PD-L1, BLTA, VISTA, PDL2, ICOS and B7H4 were transiently overexpressed on the surface of HEK293F cells. Transfected cells were washed in pre-chilled 1×PBSA buffer (1.76 mM KH2PO4, 10.14 mM Na2HPO4.12H2O, 2.68 mM KCl, 136.89 mM NaCl and 1% BSA), then incubated with 100 nM test antibodies for 1 hour on ice. Cells were washed once with staining buffer, and Alexa Fluor® 647 conjugated mouse anti-human FC antibodies were added and incubated for 30 minutes on ice, protected from light. Samples were washed once with staining buffer prior to analysis by flow cytometry.

B1: TY21591 (antibody, V domains shown)
VH: EVQLVESGGGLVQPGGSLRLSCAASGFSLSTGGVAVSWIRQAPGKGLEWIGEIYHSGSTYYSPSLKSRVTISRDNSKNTLYLQLNSLRAEDTAVYYCARRIATATYFDYWGQGTLVTVSS
VL: DIQLTQSPSSLSASVGDRVTITCRASQTVFSRYLAWYQQKPGKAPKLLIYDASNRATGIPSRFSGSGSGTDFTLTISSLQPEDFATYYCQQSYYWPPWTFGQGTKVEIK
notes: human IgG1 (hIgG1) from Fab hit B15756
For B1, the “% of cells in upper right quadrant (Q2)” value was 0.42 and the “Mean” value was 11900.

Reference: patent publication US20190241662A1 (ADAGENE, published 2019)
